# Test results: the nanobody polyreactivity screen of Harvey et al. (2022)
# Experiment: yeast display, Sf9 membrane polyspecificity reagent, FACS + sequencing; frameworks hold sequencing errors
# How it was run: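 Galactose induction of a Saccharomyces cerevisiae BJ5465 synthetic nanobody display library ran 36–48 hours. The cells were then stained for 1 hour at 4 °C with 10% biotinylated, detergent-solubilized Sf9 membrane reagent, pulled down on streptavidin microbeads and FACS-sorted into low and high (top ~1%) gates on expression and reagent-binding fluorescence. Labels for polyreactivity follow the gate of origin.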
row,Sequence,polyreactivity (PSR sort gate)
1,QVQLVESGGGLVQAGGSLRLSCAASGSTFVENAMGWYRQAPGKQRELVAAISSSGDSTFYADSEKGRFTISRDNAKNTVYLQMNSLIPEDTAVYYCAADRRINYDGLDMDYWGQGTQVTVSS,low polyreactivity
2,QVQLVESGGGLVQAGGSLRLSCAASGSTFVGNAMGWYRHAPGKEREMVATISNSGGRTYYADSVKGRFTISRDNAKNTVYLQLNSLKPEDTEVYYCAADHPAFGPGYSFDYWGQGTQVTVSS,low polyreactivity
3,QVQLVESGGGLVQAGGSLRLSCAASGSTFVGNAMGWYRQAPGKERELVAAITGGGGSTNYADSVKGRFTISRDNAKNTVYLQMNSLKPEDTAVYYCAVEVYYTGFYYSPYAYDYWGQGTQVTVSS,low polyreactivity
4,QVQLVESGGGLVQAGGSLRLSCAASGSTFVGNAMGWYRQAPGKERELVANITSGGSTNYADSVKGRFTISRDNAKNTVYLQMNSLKPEDTAVYYCAAVYLWSQRREYWGQGTQVTVSS,low polyreactivity
5,QVQLVESGGGLVQAGGSLRLSCAASGSTFVGNAMGWYRQAPGKERELVATMSNSGGRTYYADSVKGRFTISRDNAKNSVYLQMNSLKPEDTAVYFCNAQFDLTFRGTGDYWGQGTQVTVSS,low polyreactivity
6,QVQLVESGGGLVQAGGSLRLSCAASGSTFVGYAMGWYRQAPGKERELVAAISRSGGRTYYADSVKGRFTISRDNAKNTVYLQMNSLKPEETAVYYCYPYYIASTFDYWGQGTQVTVSS,high polyreactivity
7,QVQLVESGGGLVQAGGSLRLSCAASGSTFVGYAMGWYRQAPGKERELVADIDSIGGSTYYADSVKGRFTISRDNAKNTVYLQMNSLKPEDTAVYYCAAYQHPGLRTSYEYWGQGTQVTVSS,low polyreactivity
8,QVQLVESGGGLVQAGGSLRLSCAASGSTFVGYAMGWYRQAPGKERELVADITWSGTNTYYADSVKGRFTISRDNAKNTVYLQMNSLKPEDTAVYYCAAELELLLVGFFTYRREYWGQGTQVTVSS,low polyreactivity
9,QVQLVESGGGLVQAGGSLRLSCAASGSTFVGYTMGWYIQAPGKERELVAAISRGGGSTYYADSVKGRFTISRDNAKNTVYLQMNSLKPEDTAVYYCAATGFYARLSSIYYYWGQGTQVTVSS,high polyreactivity
10,QVQLVESGGGLVQAGGSLRLSCAASGSTFVGYVMGWSRQAPGKERELVAAITRSGTSTYYADSVKGRFTISRDNAKNTVYLQMNSLKPEDTAVYYCARRYVSSDYYYWGQGTQVTVSS,low polyreactivity
11,QVQLVESGGGLVQAGGSLRLSCAASGSTFVHNAMGWYRQAPGKERELVAAISESGGGTYYADSVKGRFKISRDNAKNTVYLQMNSQKPEDTAVYYCAAPPAGENWRDGGGYFGQGTQVTVSS,low polyreactivity
12,QVQLVESGGGLVQAGGSLRLSCAASGSTFVHYAMGWYRQAPGKERELVAAITISGGRTYYADSVKGRFTISRDNAKNTVYLQMNSLKAEDTAVYYCNADHYHRTWGYDYWGQGTQVTVSS,low polyreactivity
13,QVQLVESGGGLVQAGGSLRLSCAASGSTFVIYALGWYRQAPGKERELVAALSWSGGRTNYADSVKGRFTISRDNAKNTVYLQLNSLKPEDTAVYYCAAVTGVPYPHGRYKYGYWGQGTQVTVSS,high polyreactivity
14,QVQLVESGGGLVQAGGSLRLSCAASGSTFVKNVMGWYRQAPGKERELVAGITRGGSTYYADSVKGRFTISRDNAKNTVYLQMNSLKPEDTAVYYCAAARWSQYRTWMNYWGQGTQVTVSS,high polyreactivity
15,QVQLVESGGGLVQAGGSLRLSCAASGSTFVKYVMGWYRQAPGKERELVAAISWSGGSTYYADSVKGRFTISRDNAKNTVYLQMNSLKPEDTAVYYCAAVNWYDSYAKYYWGQGTQVTVSS,high polyreactivity
16,QVQLVESGGGLVQAGGSLRLSCAASGSTFVLYAMGWYIQAPGKERELVAAIDSSGGSTYYADSVKGRFTISRDNAKNTVYVQMNSLKPEDTAVYYCAARFKGLLGYWGQGTQVTVSS,high polyreactivity
17,QVQLVESGGGLVQAGGSLRLSCAASGSTFVLYAMGWYRQAPGKERELVATITTSGARTHYADSVKGRFTISRDNAKNTVYLQINSLKPEDTAVYYCAAESYWTGYDYGGQGTQVTVSS,low polyreactivity
18,QVQLVESGGGLVQAGGSLRLSCAASGSTFVNNAMGWYRQAPGKERELGASITVGGSTYYADSVKGRFTISRDNAKNTVYLQMNSLKPEDTAVYYCAAADYRFWSRYDYWGQGTQVTVSS,low polyreactivity
19,QVQLVESGGGLVQAGGSLRLSCAASGSTFVNYAMGWYRQAPGKERELVAAITRGGRTYYADSVKGRFTISRDNAKNTVYLQMNSLKPEDTAVYYCAARRSYNPAFGYWGQGTQVTVSS,high polyreactivity
20,QVQLVESGGGLVQAGGSLRLSCAASGSTFVNYVMGWYRPAPGKERELVAAISRRGTSTRYADSVKGRFTISRDNAKNTVYLQMNSLKPEDTAVYYCAATRYVGVTGYGYWGQGTQVTVSS,high polyreactivity
21,QVQLVESGGGLVQAGGSLRLSCAASGSTFVPNAMGWYRQAPGKERELVAAISYSGGTTYYADSVKGRFTISRDNAKNTVYLQMNSLKPEDTEVYYCAARSKGAAAILDDYWGQGTQVTVSS,low polyreactivity
22,QVQLVESGGGLVQAGGSLRLSCAASGSTFVPNAMGWYRQSPGKERELVAAISRSAGSTYYADSVKGRFTISRDNAKNTVYLQMNSLKPEDTAVYYCAADSLTYIAYDYWGQGTQVTVSS,high polyreactivity

row,Sequence,polyreactivity (PSR sort gate)
1,QVQLVESGGGLVQAGGSLRLSCAASGSTFVPYAIGWYRQAPGKERELVASITYSGGSTSYADSVKGRFTISRDNAKNTVYLQMNSLKPEDTAVYYCAAVPWVVYSGYDYWGQGTQVTVSS,low polyreactivity
2,QVQLVESGGGLVQAGGSLRLSCAASGSTFVPYAMGWYRQAPGKERELVAAITTSGGNTYYADSVKGRFTISRDNAKNTVYLQMNSLKPEDTAVYYCAADTYRRFDYWGQGTQVTVSS,low polyreactivity
3,QVQLVESGGGLVQAGGSLRLSCAASGSTFVPYTMGWYRQAPGKERELVAAISGSGGTDYADSVKGRFTISRDNAKNTVYLQMNSLKPEDTAVYYCAADPQYWRFYSYGGGDDYWGQGTQVTVSS,low polyreactivity
4,QVQLVESGGGLVQAGGSLRLSCAASGSTFVQNAMGWYRQAPGKERELVAAISRTGGSTYYADSVKGRFTISRDNAKNTVYLQMKSLIPEDTAVYYCATRPPHYSWPKIIEFGSWGQGSQVTVSS,high polyreactivity
5,QVQLVESGGGLVQAGGSLRLSCAASGSTFVQYAKGWSRQAPGKERELVATISKSGGDTYADSVKGRFTISRDNAKNTVYLQMNSLKPEDTAVYYCAAGYTWVSHRYRYAYNYWGQGTQVTVSS,low polyreactivity
6,QVQLVESGGGLVQAGGSLRLSCAASGSTFVQYAMGWYRQAPGKERELVAAITSGGRTNYADSVKGRFTISRDNAKNTVYLQMNSLKPEDTAVYYCAARYGSNSPRGYEYYYWGQGTQVTVSS,low polyreactivity
7,QVQLVESGGGLVQAGGSLRLSCAASGSTFVQYDMGWYRQAPGKERELVAGITRTGSTYADSVKGRFTISRDNAKNTVYLQMNSLKPEDTADYYCAVYVSGYAQTSRYDYWGQGTQVTVSS,low polyreactivity
8,QVQLVESGGGLVQAGGSLRLSCAASGSTFVRNAMGWYRQAPGKERELVAGISTGDNTYYADSVKGRFTISRDNAKNTVYLQMNSLKPEDTAVYYCNADVYTEYDYWGQGTQVTVSS,low polyreactivity
9,QVQLVESGGGLVQAGGSLRLSCAASGSTFVRNAMGWYRQEPGKERELVANISSGGGTKYADSVKGRFTISRDNAQNTVYLQMNSLKPEDTAVYYCAKRTIYSGRFYYWGQGTQVTVSS,high polyreactivity
10,QVQLVESGGGLVQAGGSLRLSCAASGSTFVRNARGWYRQAPGKERELVAAISRSGGRTYYADSVKGRFTISRDNAKNTVYLQMNSLKPEDTAVYYCAADGKSGYDYWGQGTQVTVSS,high polyreactivity
11,QVQLVESGGGLVQAGGSLRLSCAASGSTFVRYAMGWYRLAPGKERELVAAIAKSGGSTYYADSVKGRFTISRDIAKNTVYLQMNSLKPEDTAVDYCNSDVYKNSKVRIMGYWGLGTQVTVSS,low polyreactivity
12,QVQLVESGGGLVQAGGSLRLSCAASGSTFVRYAMGWYRQAPGKERELVAAISKSGGSTYYADSVKGRFTISRDNAKNTVYLQMNSLKPEDTAVYFCNADVYKNSKFRIMGYWGQGTQVTVSS,low polyreactivity
13,QVQLVESGGGLVQAGGSLRLSCAASGSTFVRYAMGWYRQAPGKERELVAAISNGGNTYYADSVKGRFTISHDNAKNTVYLQMNSLKPEDTAVYYCNKGYVYGHEYWGQGTQVTVSS,high polyreactivity
14,QVQLVESGGGLVQAGGSLRLSCAASGSTFVRYVMGWYRQAPGKERELVAAIRYRGGSTYYADSVKGRFTISRDNAKNTVYLQMNSLKPEDTAVYYCATDWRRYTKQYGYWGQGTQVSVSS,high polyreactivity
15,QVQLVESGGGLVQAGGSLRLSCAASGSTFVSNAMGWYRPAPGKERELVAAISSSGGRTSYADSVKGRFTISRDNAKNTVYLQMNSLKPEDTAVYYCAARFKSVDYVQYYYWGQGTQVTVSS,low polyreactivity
16,QVQLVESGGGLVQAGGSLRLSCAASGSTFVSNAMGWYRQAPGKERELVAGITFSGGSTYYADSVKGRFTISRDNAKNTVYLQMNSLKPEDTAVYYCAAEFHWWYAGYDYGYWGQGTQVTASS,low polyreactivity
17,QVQLVESGGGLVQAGGSLRLSCAASGSTFVSSAMGWYRQAPGKERELVARITWNGGNTYADSVKGRFTISRDNAKNTVYLQMNSLKPEDTAVYYCSTDYVVGFYYWGQGTQVTVSS,low polyreactivity
18,QVQLVESGGGLVQAGGSLRLSCAASGSTFVSYAMGWYRQAPGKEREFVAAITWSGGSTYYADSVKGRFTISRDNAKNTVYLQMNRLKPEDTAVYYFARPYRGSPRYYYWGQGTQVTVSS,high polyreactivity
19,QVQLVESGGGLVQAGGSLRLSCAASGSTFVTNAMGWYSQAPGKEREFVAAISNSSGSTYYADSVKGRFTISRDNAKNTVYLQMNSLKPEDTAVYYCNATPDDWLQEDYWGQGTQVTVSS,low polyreactivity
20,QVQLVESGGGLVQAGGSLRLSCAASGSTFVTYAMGWYRQAPGKERELVAAITTSGGSTYYADSVKGRFTISRANAMNTVYLQMNSLKPEDTAVYYCIAGFEYTQEYDYWGQGTQVTVSS,low polyreactivity
21,QVQLVESGGGLVQAGGSLRLSCAASGSTFVVNAMAWYRQAPGKERELVAVISYSGDSTYYADSVKGRFTISRDNAKNTVYLQMNSLKPEDSAVYYCNADYYDESNWGQGTQVTVSS,low polyreactivity
